Results published in patent US7094891 (CENTER FOR TRANSLATION RESEARCH IN CANCER, dated 2006).

Target: T1, Human Replication Protein A 32 (RPA32) (human, UniProt P15927 1-270, limits assumed)
T1 construct: Used in the yeast two-hybrid system; also called Replication Protein A 32KD subunit; 32-kDa middle subunit of RPA
Assay: yeast two-hybrid system (method named in paragraph 31)

T1 sequence (P15927 whole entry): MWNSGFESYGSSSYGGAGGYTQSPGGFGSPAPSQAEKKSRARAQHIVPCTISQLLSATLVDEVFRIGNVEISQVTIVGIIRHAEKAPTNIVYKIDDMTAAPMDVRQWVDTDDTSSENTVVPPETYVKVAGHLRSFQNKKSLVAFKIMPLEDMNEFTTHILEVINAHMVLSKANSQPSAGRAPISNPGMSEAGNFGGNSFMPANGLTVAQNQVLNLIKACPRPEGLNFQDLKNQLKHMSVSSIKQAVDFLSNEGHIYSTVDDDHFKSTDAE

- binding result: binds
B1: replication protein A binding transcriptional activator 1 (RBT1) (other)
chain: MEGGLKRKHSDLEEEEERWEWSPAGLQSYQQALLRISLDKVQRSLGPRAPSLRRHVLIHNTLQQLQAALRLAPAPALPPEPLFLGEEDFSLSATIGSILRELDTSMDGTEPPQNPVTPLGLQNEVPPQPDPVFLEALSSRYLGDSGLDDFFLDIDTSAVEKEPARAPPEPPHNLFCAPGSWEWNELDHIMEIILGS
notes: Open reading frame of 196 amino acids
